Source: patent US20260092093A1 (TJ BIOPHARMA SHANGHAI, published 2026)
Substitutions are numbered along the chain they refer to.

T1: recombinant hIL-18Rα extracellular domain (human, UniProt Q13478 22-329, biotin label (selection) or fluorescent probe (single-clone FACS), sites not given)
T1 construct: extracellular domain; also called hIL-18Rα ECD; hIL-18Rα-ECD
T1 sequence (looked up): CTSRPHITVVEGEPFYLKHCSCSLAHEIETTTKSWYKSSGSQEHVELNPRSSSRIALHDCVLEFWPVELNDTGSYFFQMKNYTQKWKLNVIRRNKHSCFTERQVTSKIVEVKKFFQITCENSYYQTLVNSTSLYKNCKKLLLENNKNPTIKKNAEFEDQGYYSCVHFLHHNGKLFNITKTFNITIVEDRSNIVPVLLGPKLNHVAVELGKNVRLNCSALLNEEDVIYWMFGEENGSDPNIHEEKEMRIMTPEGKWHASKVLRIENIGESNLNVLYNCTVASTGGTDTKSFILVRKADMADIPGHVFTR

T2: hIL-18Rα ECD-Fc fusion protein (human, UniProt Q13478 22-329)
T2 construct: extracellular domain; captured on Protein A sensor
T2 sequence (looked up): T1 sequence (looked up)

B1: SEQ ID NO 60 (ligand)
chain: YFPKLKSKLSVIRNLNDQVLFIDQGNRPLFEDMTDSDCRDNAPRTIFIISMYKHSSTRGMAVTISVKCEKISTLSCENKIISFKEMNPPDVIKDTKSDIIFFQCSVPGHDNKMQFESSSYEGYFLACEKERDLFKLILKKEDELGDRSIMFTVQNED
B2: SEQ ID NO 48 (ligand)
chain: B1 chain with P3F, H54P, S56P, T57P, V91T, C104Y
B3: SEQ ID NO 34 (ligand)
chain: B1 chain with H54Q, S56T, T57W, V91C, C104R
B4: SEQ ID NO 37 (ligand)
chain: B1 chain with K6R, H54G, S56G, T57I, V91G, C104R
B5: SEQ ID NO 6 (ligand)
chain: B1 chain with K6S, H54W, S56P, T57W, V91D, C104R
B6: SEQ ID NO 46 (ligand)
chain: B1 chain with K6G, S56D, T57P, C104M
B7: SEQ ID NO 7 (ligand)
chain: B1 chain with S56T, T57V, C104R
B8: SEQ ID NO 30 (ligand)
chain: B1 chain with S56I, T57H, C104V
B9: SEQ ID NO 33 (ligand)
chain: B1 chain with P3G, H54L, S56T, T57R, V91P, C104R
B10: SEQ ID NO 51 (ligand)
chain: B1 chain with K6R, H54W, S56A, T57V, V91S, C104S
B11: SEQ ID NO 29 (ligand)
chain: B1 chain with K6T, S56Y, T57A, C104R
B12: SEQ ID NO 40 (ligand)
chain: B1 chain with H54L, S56G, T57A, C104R
B13: SEQ ID NO 23 (ligand)
chain: B1 chain with H54G, S56G, V91A, C104R
B14: IL-18 variant polypeptide M6 (ligand)
chain: B1 chain with K6R, H54W, S56T, T57P, C104T
B15: SEQ ID NO 13 (ligand)
chain: B1 chain with K6R, H54W, S56K, C104Y
B16: SEQ ID NO 24 (ligand)
chain: B1 chain with P3D, K6G, H54W, S56P, T57W, V91N, C104R
B17: SEQ ID NO 14 (ligand)
chain: B1 chain with K6R, H54Y, S56T, T57A, C104H
B18: SEQ ID NO 57 (ligand)
chain: B1 chain with S56R, T57A, V91S, C104T
B19: IL-18 variant polypeptide MM1 (ligand)
chain: B1 chain with H54L, S56T, T57Q, C104R
B20: SEQ ID NO 20 (ligand)
chain: B1 chain with H54F, S56T, T57V, V91G, C104H
B21: SEQ ID NO 45 (ligand)
chain: B1 chain with K6R, S56Y, T57G, V91A, C104T
B22: SEQ ID NO 31 (ligand)
chain: B1 chain with H54W, S56A, T57R, V91P, C104S
B23: SEQ ID NO 53 (ligand)
chain: B1 chain with K6R, H54L, S56G, T57W, C104R
B24: SEQ ID NO 10 (ligand)
chain: B1 chain with P3T, H54W, T57D, V91A, C104V
B25: SEQ ID NO 16 (ligand)
chain: B1 chain with K6T, S56T, T57Y, V91A, C104R, N155K
B26: SEQ ID NO 32 (ligand)
chain: B1 chain with K6R, T57R, V91I, C104Y
B27: SEQ ID NO 15 (ligand)
chain: B1 chain with K6R, H54S, S56R, T57G, C104T
B28: IL-18 variant polypeptide M36 (ligand)
chain: B1 chain with K6S, H54A, S56D, T57Q, V91G, C104R
B29: IL-18 variant polypeptide M8 (ligand)
chain: B1 chain with K6R, H54W, S56P, T57A, V91A, C104L
B30: SEQ ID NO 42 (ligand)
chain: B1 chain with P3E, K6R, H54W, S56P, T57D, C104V
B31: SEQ ID NO 18 (ligand)
chain: B1 chain with F2L, K6R, H54W, S56T, T57S, V91S, C104S, N155K
B32: SEQ ID NO 52 (ligand)
chain: B1 chain with P3W, H54P, T57H, C104L
B33: SEQ ID NO 19 (ligand)
chain: B1 chain with K6R, H54W, S56Y, T57P, V91S, C104S
B34: SEQ ID NO 5 (ligand)
chain: B1 chain with K6R, S56T, T57V, C104R
B35: SEQ ID NO 47 (ligand)
chain: B1 chain with K6R, H54L, S56T, T57V, V91G, C104H
B36: SEQ ID NO 25 (ligand)
chain: B1 chain with H54L, S56G, T57V, V91T, C104R
B37: SEQ ID NO 36 (ligand)
chain: B1 chain with K6R, H54W, S56R, T57P, V91S, C104Y
B38: IL-18 variant polypeptide LM1 (ligand)
chain: B1 chain with H54G, S56G, T57A, V91N, C104R
notes: soluble, E. coli-made
B39: IL-18 variant polypeptide LM4 (ligand)
chain: B1 chain with S56Y, T57S, V91N, C104R
notes: soluble, E. coli-made
B40: IL-18 variant polypeptide WM6 (ligand)
chain: B1 chain with P3D, H54D, S56Q, T57P, V91S, C104R
notes: soluble, E. coli-made
B41: IL-18 variant polypeptide WM2 (ligand)
chain: B1 chain with K6R, H54D, S56Q, T57P, V91N, K96E, C104R
notes: soluble, E. coli-made
B42: IL-18 variant polypeptide LM5 (ligand)
chain: B1 chain with P3G, K6R, H54W, T57Q, V91N, C104R
notes: soluble, E. coli-made
B43: IL-18 variant polypeptide WM8 (ligand)
chain: B1 chain with K6R, H54D, S56Q, T57P, V91S, C104R
notes: soluble, E. coli-made
B44: IL-18 variant polypeptide LM2 (ligand)
chain: B1 chain with K6R, H54L, S56G, T57S, C104R
notes: soluble, E. coli-made
B45: IL-18 variant polypeptide MM5 (ligand)
chain: B1 chain with P3G, K6G, H54L, S56T, T57E, V91G, C104S
notes: soluble, E. coli-made
B46: IL-18 variant polypeptide WM10 (ligand)
chain: B1 chain with H54D, S56Q, T57P, V91S, C104R
notes: soluble, E. coli-made
B47: IL-18 variant polypeptide LM3 (ligand)
chain: B1 chain with K6R, V11I, H54G, S56G, T57A, V91G, C104R
notes: soluble, E. coli-made
B48: IL-18 variant polypeptide MM4 (ligand)
chain: B1 chain with K6R, H54L, S56T, T57I, V91G, C104R
notes: soluble, E. coli-made

Biological target: T1, recombinant hIL-18Rα extracellular …
Assay: single-clone FACS, yeast display, 10 nM labelled hIL-18Rα ECD
Description: Following the screens described in Example 2, single clone FACS analysis was performed to verify the binding of selected yeast cell surface-expressed IL-18 variant polypeptides from Round 4 and Round 5 to 10 nM hIL-18Rα-ECD. Briefly, each yeast clone at the same density was incubated with 10 nM IL-18Rα-ECD labeled by fluorescent probe, respectively, followed by washing step. Then the ratio of fluorescent positive IL-18Rα ECD binding yeasts in the population of each clone were analyzed.

Binder	% of fluorescence positive cells [%]
B1	76.5
B2	83.8
B3	88.6
B4	88.4
B5	95.5
B6	84.9
B7	95.5
B8	89.7
B9	88.8
B10	83.1
B11	89.7
B12	87.9
B13	90.8
B14	79
B15	93.2
B16	90.1
B17	93.2
B18	79
B19	91.6

Binder	% of fluorescence positive cells [%]
B20	91.7
B21	86.1
B22	89.5
B23	82.4
B24	94.8
B25	93
B26	88.9
B27	93
B28	14.8
B29	73.4
B30	87.2
B31	92
B32	83
B33	97.9
B34	95.6
B35	84.7
B36	90
B37	88.5

Biological target: T2, hIL-18Rα ECD-Fc fusion protein
Assay: BLI (Octet RED96), hIL-18Rα ECD-Fc on Protein A sensor
Description: The affinities of IL-18 variant polypeptides for hIL-18Rα were assessed by Biolayer Interferometry (BLI) on Octet RED96 using Protein A sensor coated with hIL-18Rα ECD-Fc fusion protein, and WT hIL-18 was used as a control.

Binder	Kd [µM]	Response (nm)	koff [s⁻¹]	kon [M⁻¹ s⁻¹]
B38	0.0862	0.0618	0.047	545000
B39	0.00417	0.0262	0.0169	4.06e+06
B40	0.0101	0.304	0.00199	196000
B41	–	< 0.02	–	–
B42	0.0196	0.038	0.0411	2.1e+06
B43	–	< 0.02	–	–
B44	0.0379	0.0338	0.052	1.37e+06
B45	0.104	0.0326	0.077	743000
B46	0.0129	< 0.02	0.007	543000
B47	0.0146	0.0422	0.0328	2.24e+06
B48	0.00982	0.0238	0.0375	3.82e+06
